Reference: US20110239327A1, “Nematicidal Effects of Cysteine Proteinases and Methods of Use Thereof to Treat Nematode Infestation” (priority 2007, published 2011)

System: M. incognita J2
Assay: In planta bioassay, one soil application: nematode infection of tomato roots
Assay type: in vivo, M. incognita on tomato plants
Conditions: with or without Vydate 125 μl; for Mean number of nematodes in roots: soil 16% organic matter, 11 days; for Reduction of nematode infection of tomato plants: vs controls
Experimental: Oxamyl is supplied as 10% liquid Vydate. 125 μl of a solution 1000 fold dilution of 10% formulation (kindly supplied by DK from NIU) was applied to 5 g of the soil mixture with 16% organic matter, to give a partial nematicidal effect. Soil mixtures were wetted with PBS pH 7.2, 16 hrs prior nematode application of 1000 or 2000 M. incognita J2. Infected soil mixtures were treated with water (control) or 250 μM of active papain in 16 mM of L-cysteine or a combination of Vydate and 250 μM of active papain in 16 mM of L-cysteine. After 48 hs tomato seedlings one month old were added to the treated soils. After 11 days the roots were washed free of soil and chopped to approximately 2 mm pieces. The root pieces of each tomato plant was placed in muslin bags and stained with acid-fuchsin. The stained roots were examined under microscope and all the nematodes present in the roots were counted. In some experiments the soil mixture was wetted with PBS pH 7.2 or 250 μM of active papain for 16 hs to block the non-specific binding site present in the soil particles. After that approximately 1000 M. incognita J2 were applied to soil mixtures, followed by application of 250 μM of active papain in presence of 16 mM of L-cysteine, or water (control) or Vydate alone or a combination of 250 μM of active papain in presence of 16 mM of L-cysteine and Vydate. After 48 hours tomato seedlings one month old were added to the treated soils and after 11 days post infection nematode development inside root tissues was assessed as described above.
Approximately 2000 J2 of M. incognita were added to 5 g of 1:6 loam and sand which was previously wetted for 16 hs with PBS pH 7. Then a solution of 300 μM or 150 μM of active papain (in 16 mM of L-cysteine) with and without 125 μl Vydate was added to soil and left to react for 48 hs. After this period of time tomato seedlings one month old were added to the treated soil mixtures and placed in a glasshouse at 23° C. in a 16:8 h light-dark regime (Table 1). After 11 days nematode development in the root tissue was assessed.

B1: papain (protein, UniProt P00784 134-345, looked up)
Papain: IPEYVDWRQKGAVTPVKNQGSCGSCWAFSAVVTIEGIIKIRTGNLNEYSEQELLDCDRRSYGCNGGYPWSALQLVAQYGIHYRNTYPYEGVQRYCRSREKGPYAAKTDGVRQVQPYNEGALLYSIANQPVSVVLEAAGKDFQLYRGGIFVGPCGNKVDHAVAAVGYGPNYILIKNSWGTGWGENGYIRIKRGTGNSYGVCGLYTSSFYPVKN
notes: cysteine proteinase from Carica papaya, Merops C01.001, Sigma P3125
Mean number of nematodes in roots (papain 150 μM): 272 | Reduction of nematode infection of tomato plants (papain 150 μM): 14% | Mean number of nematodes in roots (papain 300 μM): 132 | Reduction of nematode infection of tomato plants (papain 300 μM): 60%
